# Experiment: label from the status in PepcDB records
row,Sequence,protein production
1,MSINPYVTIFLLLAATSSQALSISLADPCTVSDFPALCRSTIKGQTNVNAATDVAIKELMKRTRQAKKIAEKELKRDGGVATCLSNFNSAFDNLEKALTNIKENDGFSLNINLSAALTDYDTCSDSMKETKEVNVIYKSAGVLYRMADNCLALSTLVKH,failed
2,MVPPRVSLLLRAETVVRPSVSAFPRKLPLVDMTAADALVGTTLAHRYRVESKIANGGMATVFLAHDLRLDRRVALKVMHANLARDPQFVQRFINEALAVAKLSHPNVVQVYDQGSDQGHVYLAMEYVAGQTLRAALKARTRFSPAEALRIMVPILAGLGAAHQAGMVHRDMKPENVLITHDGQIKVADFGLARAAEASQQGLTKTGTLMGTAAYLSPEQITHSTADARSDVYACGIMLYELLTGRQPHTGDSPIAVAYQHVNEDVPRPSRVVPGIPPEVDSLVVRATERDPAYRLANAGQFLAAVFAAQKALDEQPSAAVTSVMEMAPAPAGDTAEDSDNATRTLQGVELPPVEYDDYEDDRPPRPSLRTPLLVATVLLLVVAVGFGWWMVDGRYETVPDLVGVESDEARRDLRMLGFRVQTAEEPAYSDEAPPGTVAATDPEAGSRLLPDTLVTLILSAGPQYVEMPDVEGASVAEARDALKEVGLTDIVEDEITSFDNPPGTVITTKPAPGEKANREESVTLTISAGFPMPNVVGQKVDDARRLLESSDLEVTVVEEHHDEVPEGHVISQEPEAETTVGAGQSVTLTVSSGPELVEVPDIRGWKVDKARKELEERGFEVTVHQVIGNRVGDYNPKGEAPKGSTIEIWTSPFGRERDRDRGREDRLWIGLD,failed
3,MARLHPIYSGQSDRPAILFVHGLDGHWLETWRHDACSKDDCWPHWVGEETGCDIWSLEYDAALSGWLDQAMPLPDQGSQVMDLLASAPALKGKPLVFVTHSLGGILVKTALVYGAEEDRRFQHIVDHVLGVVFIATPHSGAQLATLARVIKYLLRINPPVGNLEHHDPHLRTLNRRYQTLVKERGIEGYVYAEKRGVKIGPRGFGGWLRRIEPTVMVVDPGSTDPSLPEIQPISLAEDHISICKPPDRQQQIHLSLCHVLKEKIIPLAGDRGMGTTGVGLKLLESGTAQENPAAHMPPGRLVGPDDNRLSPREGKVYGRKTQENDVLAFLKGSEPVKVVGGVAGVGKTEVCKAALKTWLHTSPRPVAYYVRVPDRARSADLVLQVGKAVGIENCESLAQLLGVIPVGLYYLDNLESVADDQEGRNALRDLAQKPGVRILASSRTRLDTIFGAPIEIKCLSAPDALALFRDLWPPTQTLPKDDELQAFVIGKLGGHALSLVLVARLGMCLSFDALRRRWDEEGAALACDGVEDDTRTSNLTFNLRLTAEVLAPTPGALSVWVLMALFEEGIPEAVLEEVERRGQWPTLARHRLAVHHLISKRGDRWFLPPPVARYARYAAVTEQDGFCWRKSRQPILDLFLVFAEKASSFDSSPETLKAKKWILEFFNTISIVIECELESNVQNKFWLNRMSYFLRDIYQQRIAVSPALLRKLADAGIQPANTLRSLGDLASRLGQVDKARSLYEKALGLSQQEQSGLGQANALKALGDLASRLGQVDKARSLYETALGLFQQEQHGLGQANTLHGLGDLASQLGQVDKARSLYEKALGLFQQEPNGLGQANTLKSLGALEYRLGQVDKARSLYEKAVDLYRIEQEPLGLAYSLTNLALCFEVLKNLSKRNQVLKAAFVASRDANNEIVQIYLKEAIPEMPGADVLYDSWLKGQSR,failed
4,MAENKLGRDIPRKYANQYGVFEGELAHIKSYKESSRQVKPVKPSDDKLLSSIHEAIEKTRLKDGMTISFHHHFREGDYVMNMVLDEIAKMGIKDISIAPSSIANVHEPLIDHIKNGVVTNITSSGLRDKVGAAISEGIMENPVIIRSHGGRARAIATDDIHIDVAFLGAPSSDAYGNANGTRGKTTCGSLGYAMIDAKYADQVVIVTDTLVPYPNTPISIPQTDVDYIVVVDAIGDPEGIAKGATRYTKNPKELLIAEYAAKVITSSPYYKEGFSFQTGTGGASLAVTRFMREQMIKDDIKANFALGGITNAMVELLEEGLVDKILDVQDFDHPSAVSLDRNAEKHYEIDANMYASPLSKGSVINQLDICVLSALEVDTNFNVNVMTGSDGVIRGASGGHCDTAFAAKMSLVISPLVRGRIPTFVDKVNTVITPGTSVDVVVTEVGIAINPNRPDLIEYFKDLKVPQLTIEELKEKAYAIVGNPQPIQYGDKIVALIEYRDGSLIDVVRNVLEHHHHHH,not failed
5,MNLSSASSTEEKAVTTVLWGCELSQERRTWTFRPQLEGKQSCRLLLHTICLGEKAKEEMHRVEILPPANQEDKKMQPVTIASLQASVLPMVSMVGVQLSPPVTFQLRAGSGPVFLSGQERYEASDLTWEEEEEEEGEEEEEEEEDDEDEDADISLEEQSPVKQVKRLVPQKQASVAKKKKLEKEEEEIRASVRDKSPVKKAKATARAKKPGFKK,failed
6,MTGPDRVALLVLAALVLDWLLGDPRWLPHPVVAVGRLVTALERQLRRLVTNERAAGVILLVLTVGITGGTAWLLVLGAGLVHPVAGFAVEALLGWTCLAARSLHGESKLVADALAAGDLAEARFFLSRIVGRDTAELTEPEIWRGVVETVAENTSDGVIAPLFWFMIGGAPLALAYKAVNTLDSMVGYKNERYLHFGWASARFDDLVNLLPARITGLLMVLSAPLAGLSGPGAWRIMRRDGRNHSSPNAGIPEAAAAGALGVRLGGMNVYFGRPVAKPTIGDPLNPLDRTAWRGAVRLMYGSEILLTGFMLCYLFVLERP,failed
7,MTSAAQLTALLHLASPALPVGAFSYSQGLEAAVEARHVHDEASAARWIAEGLAVLAACEAPLWLLQYADWQAGRLDAVAERDGWFLATRETRELRLETAQMGWSLARLIAQMGWGAPAMRDALAARAAITFPTAFAAAAVALGIEARDGLTAYSFAWVENQVAAAVKAIPLGQAAGQRILFGLHAAVGQAAEDAARRAACHPPELSTFSPGLGVLSARHETQYSRLFRSLEHHHHHH,failed
8,SKYKILVSFSNPESGKTLLKLANGLTKKLNSNASLTALHLSPTNELHHYNIEEYEKEIFDPIIEESQQLNQKVTTIFKASNDINYEVADTANKGDYDLLLVG,failed
9,MWYDYRFCAYPDRTGVAAEAERHIDIHRQAYNHTRYEYNALDTDEDNIGSAYQHQKRLTEWKDEWSVFSEVHSKALQKTVERFYDNLSNLSEKKQNGHKVGWLKWKPPREYQSVTYSQSGFELKNTSGRTATLWLSKIGDIPIRYHRPIPDNATIKEVTLKKETTGEWYVTFGLEVEDTTLPEKPDVDDLDAEDCVGIDLGITNYIYTSDGDSVDWLNLSDEYERLRREQRNLSRKEHRSNNWKKQRREVAKVKRRIKRKVEDFQHKLTTWLVKTYDAVFVEDLNVSGMLQQRGNARNKQDAAWRGFINMLEYKGDLYGTHVVQVNPAGTTKECAECGVETEKPLWVREHSCPSCGFEADRDANASYNVLSRGLRELGLGQAEVTPVETATAVETDGGRSSSVPASRVIETGSLGVVRKTESSVMTRDEVPRTT,failed
10,MPQTLKPDTPAGTPAAGAVAFRRQVLPQDALLVRRVVESTGFFTPEEADVAQELVDEHLMHGAACGYHFVFATEDDDMAGYACYGPTPATEGTYDLYWIAVAPHRQHSGLGRALLAEVVHDVRLTGGRLLFAETSGIRKYAPTRRFYERAGFSAEAVLKAFYRAGDDKIIYRLEVA,not failed
11,MARPLVPSSQKALLLELKGLQEEPVEGFRVTLVDEGDLYNWEVAIFGPPNTYYEGGYFKARLKFPIDYPYSPPAFRFLTKMWHPNIYETGDVCISILHPPVDDPQSGELPSERWNPTQNVRTILLSVISLLNEPNTFSPANVDASVMYRKWKESKGKDREYTDIIRKQVLGTKVDAERDGVKVPTTLAEYCVKTKAPAPDEGSDLFYDDYYEDGEVEEADSCFGDEEDDSGTEES,failed
12,MSLDRPRCCLRGKECSINRFQQVESRWGYSGTSDRIRFSVNKRIFVVGFGLYGSIHGPTDYQVNIQIIHTDSNTVLGQNDTGFSCDGSASTFRVMFKEPVEVLPNVNYTACATLKGPDSHYGTKGMRKVTHESPTTGAKTCFTFCYAAGNNNGTSVEDGQIPEVIFYTEGHHHHHH,not failed
13,MSDPAEVPTASPLLETVGLACERDWRMLFERLDLRLAAGEMLQVVGPNGSGKTSLLRLLSGLMQPTAGEVRLNGRPLAEQRGELARSLLWIGHAAGIKGLLSAEENLTWLCALHQPASREAIWQALADVGLRGFEDVPCHTLSAGQQRRVALARLYLDAPPLWILDEPFTALDKQGVAQLETHLAGHCQRGGMVVLTTHHSLQQVPAGYRELDLGALKAASGATVEPALGDPA,failed

# From a protein production outcome set (Wang et al. 2014)
